The experiment concerns the target fiber receptor (cellular receptor for wild-type adenoviral fiber protein). Put plainly: competition on A549 cells; labelled competitor GV10 UTV; soluble fiber at 0 to about 10 ug/ml.

soluble wild-type fiber protein gave a percent of GV10 UTV binding inhibited of 40%.

Source of the values: patent publication US20030022355A1.
